# Laboratory results published in US20140356383A1 (published 2014).
# What was measured:
# [1] = target: T1, human guanylyl cyclase C (GCC) (human, UniProt P25092 24-1073); test: flow cytometry, 293 GCC #2 cells, 1 µg/ml
# T1 construct: also called hGCC; STAR
# [2] = target: T1, human guanylyl cyclase C (GCC); test: flow cytometry, 293 GCC #2 cells, 0.063 µg/ml
# [3] = target: T1, human guanylyl cyclase C (GCC); test: flow cytometry, 293 GCC #2 cells, 0.016 µg/ml
# [4] = target: T1, human guanylyl cyclase C (GCC); test: cell-based or functional assay
# [5] = target: T1, human guanylyl cyclase C (GCC); test: flow cytometry, 293 GCC #2 cells, 0.004 µg/ml
# [6] = target: T1, human guanylyl cyclase C (GCC); test: flow cytometry, 293 GCC #2 cells, 0.001 µg/ml
# [7] = target: T1, human guanylyl cyclase C (GCC); test: flow cytometry, 293 GCC #2 cells, 0.25 µg/ml
# [8] = target: T2, TOK107-hIg (hGCC-ECD/hIgG1 Fc) (human); test: SPR, BIACORE T100, 22 C; Prep B (reference) 5F9 immobilized on CM4 chip, GCC-ECD-Fc injected; 1:1 model; replicate F
# T2 construct: Expressed in HEK293 cells; also called TOK107-hIgG; TOK107-Ig
# T2 sequence (chain, as listed by the source limits assumed): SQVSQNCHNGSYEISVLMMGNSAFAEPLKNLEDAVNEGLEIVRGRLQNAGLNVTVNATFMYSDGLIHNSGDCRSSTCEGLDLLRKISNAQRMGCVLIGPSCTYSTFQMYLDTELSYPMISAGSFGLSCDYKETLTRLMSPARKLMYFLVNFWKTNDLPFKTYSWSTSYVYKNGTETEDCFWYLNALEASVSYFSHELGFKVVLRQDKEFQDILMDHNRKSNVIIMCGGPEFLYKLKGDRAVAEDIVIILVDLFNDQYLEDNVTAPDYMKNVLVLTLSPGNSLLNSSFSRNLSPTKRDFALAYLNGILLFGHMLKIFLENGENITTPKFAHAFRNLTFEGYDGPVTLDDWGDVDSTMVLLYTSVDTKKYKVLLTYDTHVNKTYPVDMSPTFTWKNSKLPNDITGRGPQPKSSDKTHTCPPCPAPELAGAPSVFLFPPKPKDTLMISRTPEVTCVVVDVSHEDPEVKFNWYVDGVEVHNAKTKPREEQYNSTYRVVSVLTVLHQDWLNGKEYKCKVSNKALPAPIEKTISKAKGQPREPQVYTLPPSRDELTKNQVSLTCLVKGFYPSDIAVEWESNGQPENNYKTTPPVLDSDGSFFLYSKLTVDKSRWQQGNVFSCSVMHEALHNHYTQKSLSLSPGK
# [9] = target: T2, TOK107-hIg (hGCC-ECD/hIgG1 Fc); test: SPR, BIACORE T100, 22 C; Prep A 5F9 immobilized on CM4 chip, GCC-ECD-Fc injected; 1:1 model; replicate B
# [10] = target: T2, TOK107-hIg (hGCC-ECD/hIgG1 Fc); test: SPR, BIACORE T100, 22 C; Prep B (reference) 5F9 immobilized on CM4 chip, GCC-ECD-Fc injected; 1:1 model; replicate I
# [11] = target: T2, TOK107-hIg (hGCC-ECD/hIgG1 Fc); test: SPR, BIACORE T100, 22 C; Prep B (reference) 5F9 immobilized on CM4 chip, GCC-ECD-Fc injected; 1:1 model; replicate H
# [12] = target: T2, TOK107-hIg (hGCC-ECD/hIgG1 Fc); test: SPR, BIACORE T100, 22 C; Prep A 5F9 immobilized on CM4 chip, GCC-ECD-Fc injected; 1:1 model; replicate C
# [13] = target: T2, TOK107-hIg (hGCC-ECD/hIgG1 Fc); test: SPR, BIACORE T100, 22 C; Prep A 5F9 immobilized on CM4 chip, GCC-ECD-Fc injected; 1:1 model; replicate A
# [14] = target: T1, human guanylyl cyclase C (GCC); test: FACS with GCC-expressing cells (cell line not given); antibody concentration for half maximal binding
# [15] = target: T2, TOK107-hIg (hGCC-ECD/hIgG1 Fc); test: SPR, BIACORE T100, 22 C; Prep A 5F9 immobilized, GCC-ECD-Fc injected; average of replicates A-E (95% confidence interval in brackets)
# [16] = target: T2, TOK107-hIg (hGCC-ECD/hIgG1 Fc); test: ELISA against TOK107-hIg; antibody concentration for half maximal binding
# [17] = target: T2, TOK107-hIg (hGCC-ECD/hIgG1 Fc); test: SPR, BIACORE T100, 22 C; Prep B (reference) 5F9 immobilized, GCC-ECD-Fc injected; average of replicates F-I (95% confidence interval in brackets)
# [18] = target: T2, TOK107-hIg (hGCC-ECD/hIgG1 Fc); test: SPR, BIACORE T100, 22 C; Prep B (reference) 5F9 immobilized on CM4 chip, GCC-ECD-Fc injected; 1:1 model; replicate G
# [19] = target: T2, TOK107-hIg (hGCC-ECD/hIgG1 Fc); test: SPR, BIACORE T100, 22 C; Prep A 5F9 immobilized on CM4 chip, GCC-ECD-Fc injected; 1:1 model; replicate D
# [20] = target: T2, TOK107-hIg (hGCC-ECD/hIgG1 Fc); test: SPR, BIACORE T100, 22 C; Prep A 5F9 immobilized on CM4 chip, GCC-ECD-Fc injected; 1:1 model; replicate E
# T1 sequence (P25092 24-1073 limits assumed): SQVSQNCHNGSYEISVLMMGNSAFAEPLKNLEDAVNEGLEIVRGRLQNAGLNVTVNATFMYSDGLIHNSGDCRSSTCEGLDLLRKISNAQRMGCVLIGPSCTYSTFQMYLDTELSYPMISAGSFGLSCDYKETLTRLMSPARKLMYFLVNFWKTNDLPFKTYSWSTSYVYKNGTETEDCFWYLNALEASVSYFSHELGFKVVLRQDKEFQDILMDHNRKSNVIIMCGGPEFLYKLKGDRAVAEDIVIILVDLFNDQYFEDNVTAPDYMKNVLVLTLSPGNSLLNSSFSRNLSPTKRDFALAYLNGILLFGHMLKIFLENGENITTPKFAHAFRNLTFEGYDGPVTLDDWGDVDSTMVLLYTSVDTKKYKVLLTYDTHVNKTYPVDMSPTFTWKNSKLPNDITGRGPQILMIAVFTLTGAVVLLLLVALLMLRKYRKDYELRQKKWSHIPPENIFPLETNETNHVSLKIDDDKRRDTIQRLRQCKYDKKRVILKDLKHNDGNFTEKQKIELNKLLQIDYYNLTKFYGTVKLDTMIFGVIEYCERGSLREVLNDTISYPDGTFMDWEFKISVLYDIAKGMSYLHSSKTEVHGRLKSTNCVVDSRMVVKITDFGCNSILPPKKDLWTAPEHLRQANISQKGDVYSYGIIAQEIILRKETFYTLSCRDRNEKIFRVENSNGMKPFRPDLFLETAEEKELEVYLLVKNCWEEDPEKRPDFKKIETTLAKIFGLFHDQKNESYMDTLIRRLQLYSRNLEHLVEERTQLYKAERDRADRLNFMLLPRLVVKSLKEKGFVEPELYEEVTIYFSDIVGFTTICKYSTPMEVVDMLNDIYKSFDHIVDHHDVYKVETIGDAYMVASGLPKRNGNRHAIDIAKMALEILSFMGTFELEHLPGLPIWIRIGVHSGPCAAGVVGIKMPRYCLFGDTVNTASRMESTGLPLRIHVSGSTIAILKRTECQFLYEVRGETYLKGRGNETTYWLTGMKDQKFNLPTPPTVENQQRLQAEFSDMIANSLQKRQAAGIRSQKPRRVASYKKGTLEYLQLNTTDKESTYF
binder,measurement,setting,value
"5F9 vcMMAE immunoconjugate (antibody, V domains shown, mc-vc-MMAE linked to cysteines freed by partial reduction of interchain disulfides (outside this variable domain); average drug loading about 4 (3.6 in the described preparation), also called MLN0264; ML0264) VH: QVQLQQWGAGLLKPSETLSLTCAVFGGSFSGYYWSWIRQPPGKGLEWIGEINHRGNTNDNPSLKSRVTISVDTSKNQFALKLSSVTAADTAVYYCARERGYTYGNFDHWGQGTLVTVSS VL: EIVMTQSPATLSVSPGERATLSCRASQSVSRNLAWYQQKPGQAPRLLIYGASTRATGIPARFSGSGSGTEFTLTIGSLQSEDFAVYYCQQYKTWPRTFGQGTNVEIK",MFI,[1],7420
same,MFI,[2],4850
same,MFI,[3],1790
same,"LD 50 (nM), direct cytotoxicity, CT 26 GCC #2.5 cells",[4],> 500 nM
same,"LD 50 (nM), direct cytotoxicity, CT 26 GCC #32 cells",[4],267 nM
same,"LD 50 (nM), direct cytotoxicity, HT 29 GCC #2 cells",[4],24.1 nM
same,"LD 50 (nM), direct cytotoxicity, HT 29 GCC #5 cells",[4],654 nM
same,"LD 50 (nM), direct cytotoxicity, HT 29 GCC #18 cells",[4],555 nM
same,"LD 50 (nM), direct cytotoxicity, HT29 GCC#5 cells",[4],0.59 nM
same,MFI,[5],696
same,MFI,[6],445
same,MFI,[7],7300
"anti-GCC human monoclonal antibody 5F9 (antibody, V domains shown, also called mAb 5F9; MAb 5F9 (Prep A)) VH: QVQLQQWGAGLLKPSETLSLTCAVFGGSFSGYYWSWIRQPPGKGLEWIGEINHRGNTNDNPSLKSRVTISVDTSKNQFALKLSSVTAADTAVYYCARERGYTYGNFDHWGQGTLVTVSS VL: EIVMTQSPATLSVSPGERATLSCRASQSVSRNLAWYQQKPGQAPRLLIYGASTRATGIPARFSGSGSGTEFTLTIGSLQSEDFAVYYCQQYKTWPRTFGQGTNVEIK",Kd,[8],0.0789 nM
same,koff,[8],7.64e-06 s⁻¹
same,kon,[8],96800 M⁻¹ s⁻¹
same,Kd,[9],0.0917 nM
same,koff,[9],1.1e-05 s⁻¹
same,kon,[9],120000 M⁻¹ s⁻¹
same,Kd,[10],0.127 nM
same,koff,[10],1.54e-05 s⁻¹
same,kon,[10],121000 M⁻¹ s⁻¹
same,Kd,[11],0.105 nM
same,koff,[11],9.57e-06 s⁻¹
same,kon,[11],90900 M⁻¹ s⁻¹
same,Kd,[12],0.201 nM
same,koff,[12],2.15e-05 s⁻¹
same,kon,[12],107000 M⁻¹ s⁻¹
same,MFI,[1],8030
same,MFI,[2],6620
same,Kd,[13],0.112 nM
same,koff,[13],1.19e-05 s⁻¹
same,kon,[13],106000 M⁻¹ s⁻¹
same,MFI,[3],2460
same,EC50,[14],1.24 nM
same,MFI,[5],937
same,Kd,[15],0.136 nM
same,koff,[15],1.46e-05 s⁻¹
same,kon,[15],110000 M⁻¹ s⁻¹
same,MFI,[6],500
same,EC50,[16],36.5 nM
same,MFI,[7],7820
same,Kd,[17],0.103 nM
same,koff,[17],1.13e-05 s⁻¹
same,kon,[17],107000 M⁻¹ s⁻¹
same,Kd,[18],0.103 nM
same,koff,[18],1.24e-05 s⁻¹
same,kon,[18],120000 M⁻¹ s⁻¹
same,Kd,[19],0.091 nM
same,koff,[19],1.11e-05 s⁻¹
same,kon,[19],122000 M⁻¹ s⁻¹
same,Kd,[20],0.184 nM
same,koff,[20],1.77e-05 s⁻¹
same,kon,[20],96400 M⁻¹ s⁻¹
"5F9-vc-MMAF (antibody, V domains shown, mc-vc-MMAF linked to cysteines freed by partial reduction of interchain disulfides (outside this variable domain); average drug loading about four) VH: QVQLQQWGAGLLKPSETLSLTCAVFGGSFSGYYWSWIRQPPGKGLEWIGEINHRGNTNDNPSLKSRVTISVDTSKNQFALKLSSVTAADTAVYYCARERGYTYGNFDHWGQGTLVTVSS VL: EIVMTQSPATLSVSPGERATLSCRASQSVSRNLAWYQQKPGQAPRLLIYGASTRATGIPARFSGSGSGTEFTLTIGSLQSEDFAVYYCQQYKTWPRTFGQGTNVEIK",MFI,[1],7780
same,MFI,[2],4830
same,MFI,[3],1500
same,"LD 50 (nM), direct cytotoxicity, CT 26 GCC #2.5 cells",[4],> 10 nM
same,"LD 50 (nM), direct cytotoxicity, CT 26 GCC #32 cells",[4],0.004 nM
same,"LD 50 (nM), direct cytotoxicity, HT 29 GCC #2 cells",[4],0.127 nM
same,"LD 50 (nM), direct cytotoxicity, HT 29 GCC #5 cells",[4],563 nM
same,"LD 50 (nM), direct cytotoxicity, HT 29 GCC #18 cells",[4],> 10000 nM
same,MFI,[5],707
same,MFI,[6],440
same,MFI,[7],7560
"5F9-mc-MMAF (antibody, V domains shown, mc-MMAF (non-cleavable linker) linked to cysteines freed by partial reduction of interchain disulfides (outside this variable domain); average drug loading about four) VH: QVQLQQWGAGLLKPSETLSLTCAVFGGSFSGYYWSWIRQPPGKGLEWIGEINHRGNTNDNPSLKSRVTISVDTSKNQFALKLSSVTAADTAVYYCARERGYTYGNFDHWGQGTLVTVSS VL: EIVMTQSPATLSVSPGERATLSCRASQSVSRNLAWYQQKPGQAPRLLIYGASTRATGIPARFSGSGSGTEFTLTIGSLQSEDFAVYYCQQYKTWPRTFGQGTNVEIK",MFI,[1],7580
same,MFI,[2],5350
same,MFI,[3],2110
same,"LD 50 (nM), direct cytotoxicity, CT 26 GCC #2.5 cells",[4],> 10 nM
same,"LD 50 (nM), direct cytotoxicity, CT 26 GCC #32 cells",[4],0.064 nM
same,"LD 50 (nM), direct cytotoxicity, HT 29 GCC #2 cells",[4],3.1 nM
same,"LD 50 (nM), direct cytotoxicity, HT 29 GCC #5 cells",[4],> 10000 nM
same,"LD 50 (nM), direct cytotoxicity, HT 29 GCC #18 cells",[4],> 10000 nM
same,"LD 50 (nM), direct cytotoxicity, HT29 GCC#5 cells",[4],> 10 nM
same,MFI,[5],776
same,MFI,[6],483
same,MFI,[7],7400
